# Reference: patent US20240270846A1 (published 2024)
# Where a chain is given by its changes, count along the chain named. Numbers in names are those of the source.
# B1: GLS3000 N30Y (Kabat) L chain altered form, one-arm antibody with CE115HA000 (antibody, human IgG1, kappa, L234A L235A, N297A, name in Kabat numbering)
# heavy: QVQLVESGGGVVQPGRSLRLSCAASGFTFSNAWMHWVRQAPGKGLEWVAQIKAKSNNYATYYAESVKGRFTISRDDSKNSLYLQMNSLKTEDTAVYYCRYVHYGAYYGVDAWGQGTTVTVSSASTKGPSVFPLAPSSKSTSGGTAALGCLVKDYFPEPVTVSWNSGALTSGVHTFPAVLQSSGLYSLSSVVTVPSSSLGTQTYICNVNHKPSNTKVDKKVEPKSCDKTHTCPPCPAPEAAGGPSVFLFPPKPKDTLMISRTPEVTCVVVDVSHEDPEVKFNWYVDGVEVHNAKTKPREEQYASTYRVVSVLTVLHQDWLNGKEYKCKVSNKALPAPIEKTISKAKGQPREPQVYTLPPSRCELTKNQVSLSCAVKGFYPSDIAVEWESNGQPENNYKTTPPVLDSDGSFFLVSKLTVDKSRWQQGNVFSCSVMHEALHNHYTQKSLSLSPDYKDDDDK
# chain: EPKSSDKTHTCPPCPAPELLGGPSVFLFPPKPKDTLMISRTPEVTCVVVDVSHEDPEVKFNWYVDGVEVHNAKTKPREEQYNSTYRVVSVLTVLHQDWLNGKEYKCKVSNKALPAPIEKTISKAKGQPREPQVCTLPPSRDELTKNQVSLWCLVKGFYPSDIAVEWESNGQPENNYKTTPPVLDSDGSFFLYSKLTVDKSRWQQGNVFSCSVMHEALHNRYTQKSLSLSP
# light: DIVMTQSPLSLPVTPGEPASISCRSSQSLVHSNRYTYLHWYQQKPGQAPRLLIYKVSNRFSGVPDRFSGSGSGTDFTLKISRVEAEDVGVYYCGQGTQVPYTFGQGTKLEIKRTVAAPSVFIFPPSDEQLKSGTASVVCLLNNFYPREAKVQWKVDNALQSGNSQESVTEQDSKDSTYSLSSTLTLSKADYEKHKVYACEVTHQGLSSPVTKSFNRGEC
# notes: one-arm antibody
# B2: GLS3000 R29I (Kabat) L chain altered form, one-arm antibody with CE115HA000 (antibody, human IgG1, kappa, L234A L235A, N297A, name in Kabat numbering)
# heavy: B1 heavy
# chain: B1 chain
# light: B1 light with R34I, Y35N
# notes: one-arm antibody
# B3: GLS3000 S25P (Kabat) L chain altered form, one-arm antibody with CE115HA000 (antibody, human IgG1, kappa, L234A L235A, N297A, name in Kabat numbering)
# heavy: B1 heavy
# chain: B1 chain
# light: B1 light with S25P, Y35N
# notes: one-arm antibody
# B4: GLS3000 R29S (Kabat) L chain altered form, one-arm antibody with CE115HA000 (antibody, human IgG1, kappa, L234A L235A, N297A, name in Kabat numbering)
# heavy: B1 heavy
# chain: B1 chain
# light: B1 light with R34S, Y35N
# notes: one-arm antibody
# B5: GLS3000 R29A (Kabat) L chain altered form, one-arm antibody with CE115HA000 (antibody, human IgG1, kappa, L234A L235A, N297A, name in Kabat numbering)
# heavy: B1 heavy
# chain: B1 chain
# light: B1 light with R34A, Y35N
# notes: one-arm antibody
# B6: GLS3000 R24Q (Kabat) L chain altered form, one-arm antibody with CE115HA000 (antibody, human IgG1, kappa, L234A L235A, N297A, name in Kabat numbering)
# heavy: B1 heavy
# chain: B1 chain
# light: B1 light with R24Q, Y35N
# notes: one-arm antibody
# B7: GLS3000 R29D (Kabat) L chain altered form, one-arm antibody with CE115HA000 (antibody, human IgG1, kappa, L234A L235A, N297A, name in Kabat numbering)
# heavy: B1 heavy
# chain: B1 chain
# light: B1 light with R34D, Y35N
# notes: one-arm antibody
# B8: GLS3000 S25E (Kabat) L chain altered form, one-arm antibody with CE115HA000 (antibody, human IgG1, kappa, L234A L235A, N297A, name in Kabat numbering)
# heavy: B1 heavy
# chain: B1 chain
# light: B1 light with S25E, Y35N
# notes: one-arm antibody
# B9: GLS3000 S25M (Kabat) L chain altered form, one-arm antibody with CE115HA000 (antibody, human IgG1, kappa, L234A L235A, N297A, name in Kabat numbering)
# heavy: B1 heavy
# chain: B1 chain
# light: B1 light with S25M, Y35N
# notes: one-arm antibody
# B10: GLS3000 S25A (Kabat) L chain altered form, one-arm antibody with CE115HA000 (antibody, human IgG1, kappa, L234A L235A, N297A, name in Kabat numbering)
# heavy: B1 heavy
# chain: B1 chain
# light: B1 light with S25A, Y35N
# notes: one-arm antibody
# B11: GLS3000 Q27L (Kabat) L chain altered form, one-arm antibody with CE115HA000 (antibody, human IgG1, kappa, L234A L235A, N297A, name in Kabat numbering)
# heavy: B1 heavy
# chain: B1 chain
# light: B1 light with Q27L, Y35N
# notes: one-arm antibody
# B12: GLS3000 R29Y (Kabat) L chain altered form, one-arm antibody with CE115HA000 (antibody, human IgG1, kappa, L234A L235A, N297A, name in Kabat numbering)
# heavy: B1 heavy
# chain: B1 chain
# light: B1 light with R34Y, Y35N
# notes: one-arm antibody
# B13: GLS3000 Q27E (Kabat) L chain altered form, one-arm antibody with CE115HA000 (antibody, human IgG1, kappa, L234A L235A, N297A, name in Kabat numbering)
# heavy: B1 heavy
# chain: B1 chain
# light: B1 light with Q27E, Y35N
# notes: one-arm antibody
# B14: GLS3000 R54A (Kabat) L chain altered form, one-arm antibody with CE115HA000 (antibody, human IgG1, kappa, L234A L235A, N297A, name in Kabat numbering)
# heavy: B1 heavy
# chain: B1 chain
# light: B1 light with Y35N, R59A
# notes: one-arm antibody
# B15: GLS3000 R24E (Kabat) L chain altered form, one-arm antibody with CE115HA000 (antibody, human IgG1, kappa, L234A L235A, N297A, name in Kabat numbering)
# heavy: B1 heavy
# chain: B1 chain
# light: B1 light with R24E, Y35N
# notes: one-arm antibody
# B16: GLS3000 R29T (Kabat) L chain altered form, one-arm antibody with CE115HA000 (antibody, human IgG1, kappa, L234A L235A, N297A, name in Kabat numbering)
# heavy: B1 heavy
# chain: B1 chain
# light: B1 light with R34T, Y35N
# notes: one-arm antibody
# B17: GLS3000 R29L (Kabat) L chain altered form, one-arm antibody with CE115HA000 (antibody, human IgG1, kappa, L234A L235A, N297A, name in Kabat numbering)
# heavy: B1 heavy
# chain: B1 chain
# light: B1 light with R34L, Y35N
# notes: one-arm antibody
# B18: GLS3000 R24A (Kabat) L chain altered form, one-arm antibody with CE115HA000 (antibody, human IgG1, kappa, L234A L235A, N297A, name in Kabat numbering)
# heavy: B1 heavy
# chain: B1 chain
# light: B1 light with R24A, Y35N
# notes: one-arm antibody
# B19: GLS3000 R29G (Kabat) L chain altered form, one-arm antibody with CE115HA000 (antibody, human IgG1, kappa, L234A L235A, N297A, name in Kabat numbering)
# heavy: B1 heavy
# chain: B1 chain
# light: B1 light with R34G, Y35N
# notes: one-arm antibody
# B20: GLS3000 R24S (Kabat) L chain altered form, one-arm antibody with CE115HA000 (antibody, human IgG1, kappa, L234A L235A, N297A, name in Kabat numbering)
# heavy: B1 heavy
# chain: B1 chain
# light: B1 light with R24S, Y35N
# notes: one-arm antibody
# B21: GLS3000 R24Y (Kabat) L chain altered form, one-arm antibody with CE115HA000 (antibody, human IgG1, kappa, L234A L235A, N297A, name in Kabat numbering)
# heavy: B1 heavy
# chain: B1 chain
# light: B1 light with R24Y, Y35N
# notes: one-arm antibody
# B22: GLS3000 R24T (Kabat) L chain altered form, one-arm antibody with CE115HA000 (antibody, human IgG1, kappa, L234A L235A, N297A, name in Kabat numbering)
# heavy: B1 heavy
# chain: B1 chain
# light: B1 light with R24T, Y35N
# notes: one-arm antibody
# B23: GLS3000 Q27R (Kabat) L chain altered form, one-arm antibody with CE115HA000 (antibody, human IgG1, kappa, L234A L235A, N297A, name in Kabat numbering)
# heavy: B1 heavy
# chain: B1 chain
# light: B1 light with Q27R, Y35N
# notes: one-arm antibody
# B24: GLS3000 R24G (Kabat) L chain altered form, one-arm antibody with CE115HA000 (antibody, human IgG1, kappa, L234A L235A, N297A, name in Kabat numbering)
# heavy: B1 heavy
# chain: B1 chain
# light: B1 light with R24G, Y35N
# notes: one-arm antibody
# B25: GLS3000 S25L (Kabat) L chain altered form, one-arm antibody with CE115HA000 (antibody, human IgG1, kappa, L234A L235A, N297A, name in Kabat numbering)
# heavy: B1 heavy
# chain: B1 chain
# light: B1 light with S25L, Y35N
# notes: one-arm antibody
# B26: GLS3000 S25D (Kabat) L chain altered form, one-arm antibody with CE115HA000 (antibody, human IgG1, kappa, L234A L235A, N297A, name in Kabat numbering)
# heavy: B1 heavy
# chain: B1 chain
# light: B1 light with S25D, Y35N
# notes: one-arm antibody
# B27: GLS3000 R29P (Kabat) L chain altered form, one-arm antibody with CE115HA000 (antibody, human IgG1, kappa, L234A L235A, N297A, name in Kabat numbering)
# heavy: B1 heavy
# chain: B1 chain
# light: B1 light with R34P, Y35N
# notes: one-arm antibody
# B28: GLS3000 R29V (Kabat) L chain altered form, one-arm antibody with CE115HA000 (antibody, human IgG1, kappa, L234A L235A, N297A, name in Kabat numbering)
# heavy: B1 heavy
# chain: B1 chain
# light: B1 light with R34V, Y35N
# notes: one-arm antibody
# B29: GLS3000 R24D (Kabat) L chain altered form, one-arm antibody with CE115HA000 (antibody, human IgG1, kappa, L234A L235A, N297A, name in Kabat numbering)
# heavy: B1 heavy
# chain: B1 chain
# light: B1 light with R24D, Y35N
# notes: one-arm antibody
# B30: GLS3000 Q27P (Kabat) L chain altered form, one-arm antibody with CE115HA000 (antibody, human IgG1, kappa, L234A L235A, N297A, name in Kabat numbering)
# heavy: B1 heavy
# chain: B1 chain
# light: B1 light with Q27P, Y35N
# notes: one-arm antibody
# B31: GLS3000 R24P (Kabat) L chain altered form, one-arm antibody with CE115HA000 (antibody, human IgG1, kappa, L234A L235A, N297A, name in Kabat numbering)
# heavy: B1 heavy
# chain: B1 chain
# light: B1 light with R24P, Y35N
# notes: one-arm antibody
# B32: GLS3000 Q27D (Kabat) L chain altered form, one-arm antibody with CE115HA000 (antibody, human IgG1, kappa, L234A L235A, N297A, name in Kabat numbering)
# heavy: B1 heavy
# chain: B1 chain
# light: B1 light with Q27D, Y35N
# notes: one-arm antibody
# B33: GLS3000 N53A (Kabat) L chain altered form, one-arm antibody with CE115HA000 (antibody, human IgG1, kappa, L234A L235A, N297A, name in Kabat numbering)
# heavy: B1 heavy
# chain: B1 chain
# light: B1 light with Y35N, N58A
# notes: one-arm antibody
# B34: GLS3000 S25I (Kabat) L chain altered form, one-arm antibody with CE115HA000 (antibody, human IgG1, kappa, L234A L235A, N297A, name in Kabat numbering)
# heavy: B1 heavy
# chain: B1 chain
# light: B1 light with S25I, Y35N
# notes: one-arm antibody
# Molecular target: T1, CD3 epsilon homodimer protein (UniProt P07766 23-126)
# T1 construct: construct not described; homodimer as printed; also called CD3 (CD3 epsilon)
# Assay: SPR Biacore T200, CD3 epsilon homodimer immobilized; vs unaltered GLS3000;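 further: antibody variants flowed as analyte over CD3 epsilon homodimer amine-coupled to a CM4 chip, at 25 °C in HBS-EP+ running buffer, fitted with Biacore T200 Evaluation Software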
# T1 sequence (P07766 23-126): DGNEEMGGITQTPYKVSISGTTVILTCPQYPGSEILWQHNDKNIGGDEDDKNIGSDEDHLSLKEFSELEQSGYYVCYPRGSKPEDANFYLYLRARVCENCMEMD
row,KD ratio to GLS3000 (Affinity up),Binder
1,1.03,B1
2,1.6,B2
3,0.79,B3
4,1.05,B4
5,1.15,B5
6,0.87,B6
7,1.58,B7
8,6.54,B8
9,1.6,B9
10,0.73,B10
11,0.86,B11
12,1.08,B12
13,0.99,B13
14,0.85,B14
15,0.89,B15
16,1.02,B16
17,0.9,B17

row,KD ratio to GLS3000 (Affinity up),Binder
1,1,B18
2,0.62,B19
3,0.97,B20
4,0.94,B21
5,1.03,B22
6,1.06,B23
7,0.92,B24
8,4.93,B25
9,8.86,B26
10,14,B27
11,2.25,B28
12,0.83,B29
13,2.16,B30
14,0.34,B31
15,0.89,B32
16,0.82,B33
17,0.67,B34
